Measured values reported in patent publication US20230037682A1.

Target: CD3 peptide
Assay: SPR (Biacore); 25 °C

Kd: 0.0139 µM
Substance: J6MO_SP34 (sp34)
